Results published in publication PMC9064986, “Crystal structures of BMPRII extracellular domain in binary and ternary receptor complexes with BMP10” (Nature Communications, 2022).
Numbering of substitutions follows the chain as printed.

B1: BMPRII ECD G89A (domain or fragment, human, UniProt Q13873-1 27-150, looked up)
chain: SQNQERLCAFKDPYQQDLGIGESRISHENGTILCSKGSTCYGLWEKSKGDINLVKQGCWSHIADPQECHYEECVVTTTPPSIQNGTYRFCCCSTDLCNVNFTENFPPPDTTPLSPPHSFNRDET
notes: BMPRII (BMPR2) extracellular domain, human, amino acids 27-150 of the cDNA NM_001204; source: E. coli Rosetta DE3, periplasm, purified (HisTrap, TEV cleavage, Superdex 75); not shown: DsbA, N-terminal, cleaved; His6, N-terminal, cleaved
B2: BMPRII ECD S107P (domain or fragment, human, UniProt Q13873-1 27-150, looked up)
chain: B1 chain with A63G, S81P
notes: BMPRII (BMPR2) extracellular domain, human, amino acids 27-150 of the cDNA NM_001204; mutation found in PAH patients; source: E. coli Rosetta DE3, periplasm, purified (HisTrap, TEV cleavage, Superdex 75); not shown: DsbA, N-terminal, cleaved; His6, N-terminal, cleaved
B3: BMPRII ECD G89W (domain or fragment, human, UniProt Q13873-1 27-150, looked up)
chain: B1 chain with A63W
notes: as for B1
B4: BMPRII ECD G89E (domain or fragment, human, UniProt Q13873-1 27-150, looked up)
chain: B1 chain with A63E
notes: as for B1
B5: BMP10 growth factor (GF)-domain from Pro:BMP10 made in HEK EBNA cells (ligand, human, UniProt O95393 317-424, looked up)
chain: NAKGNYCKRTPLYIDFKEIGWDSWIIAPPGYEAYECRGVCNYPLAEHLTPTKHAIIQALVHLKNSQKASKACCVPTKLEPISILYLDKGVVTYKFKYEGMAVSECGCR
notes: growth factor (GF) domain of human BMP10, cut by furin from the product of the full-length open reading frame (NM_014482); also called BMP10 GF-domain; source: HEK EBNA, full-length BMP10 cDNA co-transfected with FURIN, purified from conditioned medium as Pro:BMP10
B6: Recombinant human BMP10 growth factor (GF)-domain (R&D Systems) (ligand, UniProt O95393 317-424, looked up)
chain: B5 chain
notes: growth factor (GF) domain of human BMP10, the cut product of the BMP10 precursor; also called BMP10 GF-domain; source: bought: R&D Systems (cat. No. 2926-BP-025/CF)

Legend:
[1] = target: B6; test: SPR; Biacore T200; BMP10 GF-domain amine-coupled to a CM5 chip (1300 RU); ALK1-Fc, BMPRII-Fc or monomeric BMPRII WT and mutant ECDs injected at 40 ul/min; 10 mM HEPES pH 7.4, 150 mM NaCl, 3.4 mM EDTA, 0.5 mg/ml BSA, 0.005% P20, 25 °C; 1:1 model, KD = kd/ka; details: both partners purified
BMPRII ECD N126S [2] = target: T1, BMPRII ECD N126S (human, UniProt Q13873-1 27-150, N126S); test: native gel or EMSA; prodomain displacement: Pro:BMP10 premixed with BMPRII WT or mutant ECDs at 1:2 and 1:5 molar ratio, 20 mM Tris, 150 mM NaCl, pH 7.4, 30 min at room temperature, 12% native PAGE, Coomassie, densitometry of Pro:BMP10/prodomain; details: both partners purified
T1 construct: BMPRII (BMPR2) extracellular domain, human, amino acids 27-150 of the cDNA NM_001204; mutation found in PAH patients; source: E. coli Rosetta DE3, periplasm, purified (HisTrap, TEV cleavage, Superdex 75); not shown: DsbA, N-terminal, cleaved; His6, N-terminal, cleaved
T1 sequence (looked up): B1 chain with A63G, N100S

BMPRII ECD E98K [3] = target: T2, BMPRII ECD E98K (human, UniProt Q13873-1 27-150, E98K); test: as above; details: both partners purified
T2 construct: BMPRII (BMPR2) extracellular domain, human, amino acids 27-150 of the cDNA NM_001204; mutation found in PAH patients; source: E. coli Rosetta DE3, periplasm, purified (HisTrap, TEV cleavage, Superdex 75); not shown: DsbA, N-terminal, cleaved; His6, N-terminal, cleaved
T2 sequence (looked up): B1 chain with A63G, E72K

[4] = target: the molecule itself; test: crystal structure; BMP10:BMPRII ECD binary complex, two crystal forms (P212121, 1.48 Å; C2, 2.40 Å); complex refolded from denatured BMP10 GF-domain with excess BMPRII ECD
BMPRII ECD N126S [5] = target: T1, BMPRII ECD N126S; test: SPR; Biacore T200; BMP10 GF-domain amine-coupled to a CM5 chip (1300 RU); ALK1-Fc, BMPRII-Fc or monomeric BMPRII WT and mutant ECDs injected at 40 ul/min; 10 mM HEPES pH 7.4, 150 mM NaCl, 3.4 mM EDTA, 0.5 mg/ml BSA, 0.005% P20, 25 °C; 1:1 model, KD = kd/ka; details: both partners purified
BMPRII ECD Q92H = target: T3, BMPRII ECD Q92H (human, UniProt Q13873-1 27-150, Q92H); test: as above; details: both partners purified
T3 construct: BMPRII (BMPR2) extracellular domain, human, amino acids 27-150 of the cDNA NM_001204; mutation found in PAH patients; source: E. coli Rosetta DE3, periplasm, purified (HisTrap, TEV cleavage, Superdex 75); not shown: DsbA, N-terminal, cleaved; His6, N-terminal, cleaved
T3 sequence (looked up): B1 chain with A63G, Q66H

BMPRII ECD E98K [6] = target: T2, BMPRII ECD E98K; test: as above; details: both partners purified
BMPRII-Fc (R&D Systems) = target: T4, BMPRII-Fc (R&D Systems) (UniProt Q13873 27-150); test: SPR; BMP10 flowed over a BMPRII-Fc surface, with ALK1 present (Supplementary Fig 5c); details: both partners purified
T4 construct: BMPRII part of the bought Fc fusion; source: bought: R&D Systems (cat. No. 811-BR)
T4 sequence (looked up): B1 chain with A63G

B1
fold reduction in affinity against WT BMPRII ECD [1]: < 2 fold

B2
fold tighter binding than WT BMPRII ECD [1]: ~4 fold

B3
fold reduction in affinity against WT BMPRII ECD [1]: > 100 fold

B4
fold reduction in affinity against WT BMPRII ECD [1]: > 100 fold

B5
binding result (BMPRII ECD N126S [2]): binds
binding result (BMPRII ECD E98K [3]): binds
binding result [4]: binds

B6
binding result (BMPRII ECD N126S [5]): binds
binding result (BMPRII ECD Q92H): binds
binding result (BMPRII ECD E98K [6]): binds
fold weaker affinity with ALK1 present than without ALK1 (BMPRII-Fc (R&D Systems)): ~5 fold
